The source of these data is article PMC5801464, “Expanding Primary Metabolism Helps Generate the Metabolic Robustness To Facilitate Antibiotic Biosynthesis in Streptomyces” (mBio, 2018).

One data set has as its target T1, Pyk2 (Streptomyces coelicolor, UniProt Q9L299).
T1 construct: native gene; E. coli Rosetta host
T1 sequence (Q9L299 1-476): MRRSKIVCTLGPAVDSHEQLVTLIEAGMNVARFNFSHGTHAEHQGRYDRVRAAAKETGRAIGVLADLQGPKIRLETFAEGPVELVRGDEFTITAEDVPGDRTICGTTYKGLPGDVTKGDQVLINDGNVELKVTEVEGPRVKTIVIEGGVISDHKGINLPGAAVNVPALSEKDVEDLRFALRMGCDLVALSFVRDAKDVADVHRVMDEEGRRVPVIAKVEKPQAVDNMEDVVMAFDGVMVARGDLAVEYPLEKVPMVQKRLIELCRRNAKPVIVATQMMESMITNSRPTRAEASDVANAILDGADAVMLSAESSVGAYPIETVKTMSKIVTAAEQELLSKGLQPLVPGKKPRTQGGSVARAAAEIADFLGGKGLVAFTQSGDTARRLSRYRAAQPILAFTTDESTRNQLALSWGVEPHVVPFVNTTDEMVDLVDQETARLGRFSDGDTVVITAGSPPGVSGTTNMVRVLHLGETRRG
The data set is described as follows: pyruvate kinase activity assay, purified enzyme, Hill or Michaelis-Menten fit. In kind it is biochemical. The conditions noted are these: activator; PEP and ADP concentrations not told; read-out: No AMP / Pyk2. An excerpt:
pyruvate kinase activity assay, purified enzyme, Hill or Michaelis-Menten fit on Pyk2

The target in data set [1] is T2, Pyk1 (Streptomyces coelicolor, UniProt Q9S2I9).
T2 construct: E. coli codon-optimized gene; E. coli Origami B host
T2 sequence (Q9S2I9 1-478): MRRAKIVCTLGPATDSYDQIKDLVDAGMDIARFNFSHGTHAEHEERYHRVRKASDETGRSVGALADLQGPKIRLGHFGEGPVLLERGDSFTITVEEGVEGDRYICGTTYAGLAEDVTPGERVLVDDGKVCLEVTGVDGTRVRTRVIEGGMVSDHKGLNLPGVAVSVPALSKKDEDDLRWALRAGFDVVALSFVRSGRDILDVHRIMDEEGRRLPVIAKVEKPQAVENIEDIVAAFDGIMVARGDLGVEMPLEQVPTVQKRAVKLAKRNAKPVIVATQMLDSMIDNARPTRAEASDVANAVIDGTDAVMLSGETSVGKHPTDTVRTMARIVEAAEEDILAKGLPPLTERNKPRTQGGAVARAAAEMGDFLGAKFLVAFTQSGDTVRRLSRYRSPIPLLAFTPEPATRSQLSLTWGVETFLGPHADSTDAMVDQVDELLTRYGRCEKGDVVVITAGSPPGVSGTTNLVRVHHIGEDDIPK
The data set is described as above. The following applies: activator; PEP and ADP concentrations not told; read-out: No AMP / Pyk1. In kind it is biochemical. The text has this:
pyruvate kinase activity assay, purified enzyme, Hill or Michaelis-Menten fit on Pyk1

Data set [2] has as its target T2, Pyk1. The data set is described as follows: pyruvate kinase activity assay, purified enzyme. The following applies: activator. In kind it is biochemical.
Substrate in data set [3]: C=C(OP(=O)(O)O)C(=O)O
Briefly: pyruvate kinase activity assay, purified enzyme, Hill fit. In kind it is biochemical, Streptomyces coelicolor. The following applies: 1.5 mM ADP; no AMP; cooperative, Hill coefficient 1.5. An excerpt: pyruvate kinase activity assay, purified enzyme, Hill fit on Pyk2

Substrate in data set [4]: Nc1ncnc2c1ncn2[C@@H]1O[C@H](COP(=O)(O)OP(=O)(O)O)[C@@H](O)[C@H]1O
The data set is described as follows: pyruvate kinase activity assay, purified enzyme, Michaelis-Menten fit. It is filed as biochemical, Streptomyces coelicolor. The following applies: 5 mM PEP; no AMP; Michaelis-Menten-type kinetics. The text has this: pyruvate kinase activity assay, purified enzyme, Michaelis-Menten fit on Pyk2

Substrate in data set [5]: C=C(OP(=O)(O)O)C(=O)O
The data set is described as follows: pyruvate kinase activity assay, purified enzyme, Hill fit. It is filed as biochemical, Streptomyces coelicolor. The conditions noted are these: 1.5 mM ADP; no AMP; cooperative, Hill coefficient 3.7. An excerpt:
pyruvate kinase activity assay, purified enzyme, Hill fit on Pyk1

Substrate in data set [6]: Nc1ncnc2c1ncn2[C@@H]1O[C@H](COP(=O)(O)OP(=O)(O)O)[C@@H](O)[C@H]1O
Briefly: pyruvate kinase activity assay, purified enzyme, Michaelis-Menten fit. In kind it is biochemical, Streptomyces coelicolor. The following applies: 5 mM PEP; no AMP; Michaelis-Menten-type kinetics. An excerpt:
pyruvate kinase activity assay, purified enzyme, Michaelis-Menten fit on Pyk1
This is another data set of the same source.

With `Nc1ncnc2c1ncn2[C@@H]1O[C@H](COP(=O)(O)O)[C@@H](O)[C@H]1O` [AMP], the results for the EC50 on Pyk2 and at Pyk1 [1] were 3800 µM and 10 µM, respectively.
For `O=P(O)(O)OC[C@H]1OC(O)[C@H](O)[C@@H]1O` (stereo partly shown) [ribose-5-phosphate], at Pyk1 [2], the “pyruvate kinase activity assay, purified enzyme” value is “Pyk1 was also shown to be highly stimulated by ribose-5-phosphate”.

B1: Pyk2 (Streptomyces coelicolor A3(2)) (protein)
chain: T1 sequence (Q9L299 1-476)
notes: native gene; E. coli Rosetta host
B1: the K0.5 in data set [3] stood at 1.3 mM; in data set [4], 0.3 mM. Further, the kcat/Km in data set [3] worked out at 14000 M⁻¹ s⁻¹; in data set [4] it was 145000 M⁻¹ s⁻¹.

B2: Pyk1 (Streptomyces coelicolor A3(2)) (protein)
chain: T2 sequence (Q9S2I9 1-478)
notes: E. coli codon-optimized gene; E. coli Origami B host
Consider B2, for which, in data set [5], the K0.5 amounted to 3.5 mM, the Vmax was determined as 14.1 µmol/min/mg, the kcat came to 350 s⁻¹ and the kcat/Km was found to be 100000 M⁻¹ s⁻¹. In data set [6], the K0.5 came out at 0.6 mM and the kcat/Km worked out at 1.59e+06 M⁻¹ s⁻¹.

The kcat/Km is the second-order rate constant that governs catalysis at low substrate concentration. One may read the Vmax as the top rate of the reaction or transport when substrate is in excess. By kcat is commonly meant the maximal rate divided by the concentration of active sites.
